Measurements published in patent US20220251173A1.
Where a chain is given by its changes, count along the chain named.

B1: D3 DY (antibody, human IgG1, kappa, V domains shown)
VH: EVQLQESGPGLVKPSQTLSLTCAVSGSSITHGYHYNWIRQFPGNKLEWIGYIHYDGSVLYNPSLENRVTITRDTSKNQFFLKLSSVTAEDTAKYYCASGFDHWGQGTTLTVSS
VL: DVVMTQSPLSLPVTLGEPASISCRSSQSLVHSYGDNYLHWYLQKPGQSPKLLIYKVSNRFSGVPDRFSGSGSGTDFTLKISRVETEDLGVYYCSQNTHVPYTFGGGTKLEIKR
B2: D4 DY (antibody, human IgG1, kappa, V domains shown)
VH: B1 VH with Y35W
VL: B1 VL with V99L
B3: D5 DY (antibody, human IgG1, kappa, V domains shown)
VH: B1 VH with Y35W
VL: B1 VL
B4: C32 (antibody, human IgG1, kappa, V domains shown)
VH: B1 VH with H31Y, G32R, Y35W, H53N, L59H
VL: B1 VL with N36T, V99L

Key:
[1] = biological target: hepatitis B virus surface antigen (HBsAg) (hepatitis B virus); assay: ELISA on commercial HBsAg plate, purified antibody, incubation and washes at pH 7.4, GAH-HRP, OD450/630
[2] = biological target: hepatitis B virus surface antigen (HBsAg) (hepatitis B virus); assay: ELISA on commercial HBsAg plate, ratio of EC50 at pH 6.0 to pH 7.4
[3] = biological target: hepatitis B virus surface antigen (HBsAg) (hepatitis B virus); assay: ELISA on commercial HBsAg plate, pH 7.4, quantified transfection supernatant
[4] = biological target: hepatitis B virus surface antigen (HBsAg) (hepatitis B virus); assay: ELISA on commercial HBsAg plate, wash/incubation at pH 6.0, quantified transfection supernatant

Binder | EC50 (read off the curve) [1] [µg/mL] | EC50(pH 6.0)/EC50(pH 7.4) [2] | EC50 [3] [µg/mL] | EC50 [4] [µg/mL]
B1 | 0.05 |  |  | 
B2 | 0.06 |  |  | 
B3 | 0.04 |  |  | 
B4 |  | 1.69 | 1.33 | 2.25
